The DeepSol protein solubility set

Experiment: soluble on expression in E. coli; label from the status in PepcDB or PDB records

Sequence	soluble on expression in E. coli
MQPHPETTPVTSCTIIDATDRSIRQTLGETSTLARLIWVDAGLASPPLCSGLARCGRCRVRITEAAPAPHEDDREFFSAEDISAGWRLACRHAPAHGMVVHVPLPVMPHRHASRPKHPGPFRLAVDLGTTSLQWSLLAPDGTVAAQGSETNPQMGAGSDVMSRIAMARSDKGRGRLRELVLQALRRIVADVEGTPATADAVPPAGSGDEPTTACGYESRVEELCVAGNTAMTAILADESVEGLASAPYRLEMRGGTALALPGLPPAWIPPLPAPFVGGDLSAGYLAVLTDHAPAFPFVLADLGTNGEFVLALSPERTLVTSVALGPALEGIGLTFGTVAQRGAITSFTLTPGGLVPYVLDGGEADGISGTGYISLVHALLRAGLLDVDGRFIQSPSSPLAARMARSIVSHRGEPCLPLARGLYLAARDIEEILKVKAAFSLAFERLLATAQMPSHALSGIHLAGALGQHALPADLEGLGFIPPGSGGRTRAVGNTSLRGAELLLTSPPLRDTLNTWREGCTVVDLTAAPDFSAAFLRHMHFHFLEHHHHHH	soluble
MSLAWLISEFASVGDVTVRALRYYDKINLLKPSDYTEGGHRLYTKDDLYVLQQIQSFKHLGFSLGEIQNIILQRDIETEVFLRQMHFQREVLLAEQERIAKVLSHMDEMTKKFQKEERVNVALFSSFLQTFIWEKENKEWLEEHFSTESIQAFYNNKELKEKFDRRFMDVIGKLKKYKEEEKDPSHHDVQVTLKEFFHLIEKITDYLDISQSEVVSVIKQSKISMAEFPTLFTNEEEQYIKEAMNKEGHHHHHH	soluble
MSDHENTGENTSEYQYKQPPQKSIDELLNADKEDESLKVYKAKLLGQGTVIVDEKNPLRVIVRSVELLINGKTAQSFDLSDPAKLVNSDLSVSIKEGSNYRLSFAFHVQREITSGLHYKHKVKRSGITVENEKYMMGSYAPKLEIQEYKSPNEEAPSGMMHRGKYKVYSKITDDDNNVYLDWQWTLHITKE	not soluble
MSLELTISELKENFWGEYEYLDGGYMAARLAVLEHLEQIKRQSGIIIIREITEEYFAPVGNWHIRETVRNAMKNRLGKYDNLNLAISEVNKKLKAKINLFELRTINSLINQKSIYDFFKEGHHHHHH	not soluble
MNYVPDTSVIVDGRFTAFISEREGSNVILPEAMLSEIEHQANEGRAIGFAALEELKKLRKMESEGKISIEIEGERPKEWQIKRAKSGEIDEMIRQVAFQYDATLVTGDIIQRDVAIVKGITVEYLSPPEKIIKNIEE	not soluble
ANIIANTALTIGATKVDVKEITPELLASLNEIGGSEANVASGYHAIEFLLWGQDLNGTKAGAGARSYTDYLQGKACTNNHCDRRAQYLKAAAQLLVTDLEWMEKQWASGEKDNYRQQLLSESAENGLRKMLFGMGSLSLGELAGERMKVALEANSTEDEHDCFSDNTHNSHYYNEQGIYNIYTGSYTRADGSELKGPSLYQLVAEKDANAAKEILQQFEAARTQVGELVTAAEKNNQHFDQLIAADNAAGHAIINQAIMALVAQTGSIERAAGIIGIDNLNPDTADHEF	not soluble
MGSDKIHHHHHHMTWQVERIANEHLTLEVLPQIGASVLNLRAASGRPVLRPVNPAAVQTSSQCASFTLLPYSNRIRDARFSFQGREVLLRPTTKDGLAQHGDVRNRPWQVTRVADTHLRGDFDSRAFNDMNWPWAFTARVEYLLHGPHLDTSVTLTNVDTDEMPAGMGLHPYFTRRHGGRDPFLSFGAALTYDTDERQLPTGGPRTLHPEEDYQMPSSIGDRQLDRVYTAWDGRARLDWGERALTLTADAVYSHLVVFTAPDGSLALEPVTHATDAFNLAARGVSGTDMRTLLPGQSLAGTVRITLEGAW	not soluble
FSAPIKAERTAFRRAVCANQYDAVIDAQGLVKSAALVTRLAHGIKHGMDWSTAREPLASLFYNRKHHIAKQQHAVERTRELFAKSLGYDKPQSQGDYAIAKHFLHCQQAVSDPYAVFLHATTRDDKHWPEANWRELIGLVGNTGLRIKLPWGAPHEEARAKRLAEGFDYVDVLPRMSLEEVARVLAGAKFVVSVDTGLSHLTAALDRPNITLYGPTDPGLIGGYGKNQ	not soluble
MGSDKIHHHHHHMIQIGKRYSLEVVKQVNFGVYLNAQELGQVLLPNKFVPTGCNVGDMVDVFLYLDSEDIVIATTQKSLAQVGEYAYLKVIATGPFGAFLDWGLDKDLLLPFGEQHKPAEEGHSYLVYVHANHADERIMASSKLDKFVDKTEAHYTEGEQVNLIIGGTTELGYKAIINNLHWGVIYANEVFQKLRFGQKVTGYIKTMRSDGKIDLVLQKGDKDELDKNARLIINKLRSANGFLPLHDKTDADVIYDKLGMSKKAFKKSIGGLFKAGEITIESEGIRLTV	not soluble
VHPLPADHGRSRCNRHPISPLSLIGNASATSGDMSSMTRIAKPLIKSAMAAGLVTASMSLSTAVAHAGPSPNWDAVAQCESGGNWAANTGNGKYGGLQFKPATWAAFGGVGNPAAASREQQIAVANRVLAEQGLDAWPTCGAASGLPIALWSKPAQGIKQIINEIIWAGIQASIPR	not soluble
MESGFTACISIITGVKSIYRWKNNIEENQEIMCFFKTAEDTSSHSLYRGVITSS	not soluble
MSMYTTAQLLAANEKKFKFDPLFLRLFFRESYPFTTEKVYLSQIPGLVNMALYVSPIVSGEVIRSRGGSTSEFTPGYVKPKHEVNPQMTLRRLPDEDPQNLADPAYRRRRIIMQNMRDEELAIAQVEEMQAVSAVLKGKYTMTGEAFDPVEVDMGRSAANNITQSGGTEWSKRDKSTYDPTDDIEAYALNASGVVNIIVFDPKGWALFRSFKAVKEKLDTRRGSNSELETAVKDLGEAVSYKGMYGDTAIVVYSGQYVENDVKKNFLPDNTMVLGNTQARGLRTYGCIQDADAQREGINASARYPKNWVTTGDPAREFTMIQSAPLMLLADPDAFVSVQLA	not soluble
ARRLYVGNIPFGITEEAMMDFFNAQMRLGGLTQAPGNPVLAVQINQDKNFAFLEFRSVDETTQAMAFDGIIFQGQSLKIRRPHDYQPLPG	soluble
MSKYKTILQSNKDELHSLYEIANQDSWKPIYHIHPPFGLMNDPNGVSYYNDEYHVFYQWYPFGPIHGMKHWGHVRSKDLINWERMPVAIIPTESYESHGAYSGSAIVKDGLLHLLYTGNIKKPDDSRDAKQCMASMDSQYTMTKYSNNPVIDIIPDGYTKHVRDPKVWKHNDMYYMLLGAQRENKTGTLLLYKSQDLYNWHFQGEITTNLKEFGFMWECPDYFQLSGKDVLLFSPQGIEKDGENFHNVYNVVYAIGHFDIKNLYFHVDSYYEADKGFDFYAPQTLEDSTSRRLLFAWAGSSEITYPSDDYMWAHCLTLPRELTLEDNILKQKPVSELTKLRTTKKDISGDITAGLNVLSTLDDEDSYELIVTLKTEDAKRFGLSLFHNEEECFPITFNREQGTISIDRGNFYHQFGGEYGFERCKKIDIQDTIELQIFVDKSIVEIFLYDGSTVFTSRVFPRKDMKHHIAIFSDAKLNFTITQYKLKRGIVLEHHHHHH	soluble
MNYRIIPVTAFSQNCSLIWCEQTRLAALVDPGGDAEKIKQEVDDSGLTLMQILLTHGHLDHVGAAAELAQHYGVPVFGPEKEDEFWLQGLPAQSRMFGLEECQPLTPDRWLNEGDTISIGNVTLQVLHCPGHTPGHVVFFDDRAKLLISGDVIFKGGVGRSDFPRGDHNQLISSIKDKLLPLGDDVIFIPGHGPLSTLGYERLHNPFLQDEMPVW	soluble
MGSDKIHHHHHHEDVYREVTASGAHNLTLAVDNPRNLGGADDAALARDVAEVLRFDMTLAGPFSVMAPPAGTSPGGIRPGEFDLDSWRNAGVDLLVKSGYTITGDSVTMEFRLYNATQGRELAAKRYTGKRSDLRRITHTFSDDIMQTMTGERGPFTGKIAFVSTESGNKEIYLMDYDGHNVQRLTKNRSINLNPDFSPNGRELAYTSYRRGNPDLFRREIFTGTEAVVSSHRGINVTGTWSPDGKQLALAMSRDGNSEIYAISRDGRDPRRLTTHQAIDVSPAWSPDGKRIAFVSDRLGKPQVFIMNADGSDVRRLTTSGAYNVSPRWSPKGDRLVYCRQEGGFQIYSIATDGTGDTRLTSEGSNEHPRWSPDGRFLTFSSTRDGGEAIYVMRSDGSGQTRVYRSKGKASHPTWSPRW	not soluble
MVEINLRELKKYANPFFLTIRKDKILVNNKRMARLSRTKMDKIEEEFGIPVIYSKTYEYVSTKVGRFINKHKIIAPRDIVIVGLSGGKDSLLLLHLLEVYRRKYGIKLIAVTVDVNIGGIRPWKEDTEGVKLIKHHCEMLNVPHIILKNDLDVVELSEILTKHSKGMEFSPCFSCSVIKRHLLGKLAKEIAENENIPYEKVKLAYGHNLDDNSDTILANIFKGERLKFMRPLTRFKYNEVDYQSFKIPLEECIIIRPMLPILERDIIKALEECGIEYYKDKDMCPYSRDRGDSVRRRCHEILEKLEEEIPNIREMVVSSALKTVEYYSKNPYGEDNL	soluble
RRNALELEVFAGQEKSELSMIEVARAILELRGRDHEMHFSDLVNEIQNYLGTSNSDIREALPLFYTELNFDGSFISLGDNKWGLRSWYGVDEIDEEIIALEENDDDEVAPKAKKKRVNAFMDGDSDAIDYNADDPEDEDAYEADPALSYDDENPDDEKNEVEAYDAEINEIAPDDLGEDVDLNEDDDEFSDDDAET	not soluble
SLSEGYLSGLEYWNDIHWSCASYNEQVAGEKEEETNSVATLSYSSVDETQVRSLYVSCKSSGKFISSVHSRESQHSRSQRVTVLQTNPNPVFESPNLAAVEICRDASRETYLVPSSCKSICKNYNDLQIAGGQVMAINSVTTDFPSESSFEYGPLLKSSEIPLPMEDSISTQPSDFPQKPIQRYSSYWRITSIKEKSSLQMQNPISNAVLNEYLEQKVVELYKQYIMDTVFHDSSPTQILASELIMTSVDQISLQVSREKNLETSKARDIVFSRLLQLMSTEITEISTPSLHISQYSNVNP	not soluble
MSRPFTGATLCTTIAPHCSRTTAMTTLPAASPEALATSQALCGRISQAIAEAGGWIPFSHYMELALYAPGMGYYAAGSRKLGEDGDFVTAPELTPLFGQSLARQLAELLPQTAGAVYEFGAGTGKLAIDLLAELKALNQLPAKYVILDLSPDLIDRQRQNIRAALPHLADRVEWASSLPDAIDGIVIGNELLDAMPCEMVFRDEDRRLRQRGVTVRDGALCYEDRDFADSRLAELAAQLLPDIPRYETEISLANRAFIATVAGALTRGAILMIDYGHAASEYYHPERSMGTLLGHYRHHTVQDPFYLPGLMDLTCHVDFTAVAQSGIDAGLDLIGYTSQAQFLVNCGLIERLQTLDADDVKAYLPIAKAAQRLLSPQEMGETFKAIGFGKGVSIDWLGFARGDRCYTLLEHHHHHH	soluble
MDNYQEITRYLDNAREILSTKANKEGQFYKDIKYVQMASGTAYNAALMIADEYLRKKEGAKFTKPNSIDEYRVRLNKHNKTLLAYLNRAYDMLHLAGYYHGTPSVGTIKQGMEAAQKMLALIEH	soluble
MGSDKIHHHHHHMFKNTFQSGFLSILYSIGSKPLQIWDKKVRNGHIKRITDNDIQSLVLEIEGTNVSTTYITCPADPKKTLGIKLPFLVMIIKNLKKYFTFEVQVLDDKNVRRRFRASNYQSTTRVKPFICTMPMRLDDGWNQIQFNLLDFTRRAYGTNYIETLRVQIHANCRIRRVYFSDRLYSEDELPAEFKLYLPVQNKAKQ	not soluble
MNTQKRQQIRTEIRKIRANLTALQQHQAEQSVTQHALNLIEQRQAKNIALYFSFDGEISTKALIQSLWMQNKNVYLPVLHPFTKHYLLFLRYLPDTPMKQNQFGIWEPKLNVQNVLPLNELDILFTPLVAFDKKGNRLGMGGGFYDRTLQNWQNKSFIPVGLAYQCQQVENLPTEHWDVPLFDILVGLEHHHHHH	not soluble
MAQHPPYCRNQPGKCQIPLRDLFDRAVVLSHYIHNLSSEMFSEFDKRYTHGRGFITKAINSCHTSSLATPEDKEQAQQMNQKDFLSLIVSILRSWNEPLYHLVTEVRGMQEAPEAILSKAVEIEEQTKRLLEGMELIVSQVHPETKENEIYPVWSGLPSLQMADEESRLSAYYNLLHCLRRDSHKIDNYLKLLKCRIIHNNNC	soluble
